Residue numbers refer to the chain shown, from its start.
B1: MS501 scFv 단백질 (scFv)
scFv: EVQLLESGGGLVQPGGSLRLSCAASGFTFSNYAMSWVRQAPGKGLEWVSGIYPDSGSTYYADSVKGRFTISRDNSKNTLYLQMNSLRAEDTAVYYCARNIYTFDYWGQGTLVTVSSGGGGSGGGGSGGGGSQSVLTQPPSASGTPGQRVTISCSGSSSNIGSNAVSWYQQLPGTAPKLLIYYNNQRPSGVPDRFSGSKSGTSASLAISGLRSEDEADYYCGSWDSSLSGYVFGGGTKLTVLG
B2: MS503 scFv 단백질 (scFv)
scFv: B1 scFv with G50S, D54G, S55D, R98K, I100A, Y101F, N184S, Q185H, S222T
B3: C2G4 scFv 단백질 (scFv)
scFv: EVQLLESGGGLVQPGGSLRLSCAASGFTFSNYAMSWVRQAPGKGLEWVSGIPPDSGSKYYADSVRGRFTVSRDNSKNTLYLQMNSLRAEDTAVYYCAKNMLSFDYWGQGTLVTVSSGGGGSGGGGSGGGGSQSVLTQPPSASGTPGQRVTISCTGSSSNIGSNAVSWYQQLPGTAPKLLIYYNSKRPSGVPDRFSGSKSGTSASLAISGLRSEDEADYYCGSWDPSLNGYVFGGGTKVTVLG

Target: 메소텔린 (MIA PaCa2-MSLN 세포에 과발현) (UniProt Q13421)
Assay: flow cytometry on MIA PaCa2-MSLN cells; 1 μg scFv, anti-6xHis tag detection

Row | Binder | percent of cells bound
1 | B1 | > 68%
2 | B2 | > 68%
3 | B3 | > 68%

Reference: patent publication KR20200090598A
